Experimental data from paper PMC13391367.

Biological target: UAP56 (UniProt Q13838 1-428)
Assay: pull-down (NeutrAvidin beads, RNA unclamping assay); ATP, 2 mM Mg2+; clamped UAP56-ADP-Pi-RNA complex, no release factor; RNA unclamping: 20 mM HEPES pH 7.9, 40 mM KCl, 2 mM MgCl2, 5% glycerol, 0.1% Igepal CA-630, 1 mM ATP at loading, room temperature, 500 mM KCl wash; cryo-EM: 25
Details: protein: recombinant; tags: 10xHis-3C (N-term); single strand

UAP56, sequence (Q13838 whole entry): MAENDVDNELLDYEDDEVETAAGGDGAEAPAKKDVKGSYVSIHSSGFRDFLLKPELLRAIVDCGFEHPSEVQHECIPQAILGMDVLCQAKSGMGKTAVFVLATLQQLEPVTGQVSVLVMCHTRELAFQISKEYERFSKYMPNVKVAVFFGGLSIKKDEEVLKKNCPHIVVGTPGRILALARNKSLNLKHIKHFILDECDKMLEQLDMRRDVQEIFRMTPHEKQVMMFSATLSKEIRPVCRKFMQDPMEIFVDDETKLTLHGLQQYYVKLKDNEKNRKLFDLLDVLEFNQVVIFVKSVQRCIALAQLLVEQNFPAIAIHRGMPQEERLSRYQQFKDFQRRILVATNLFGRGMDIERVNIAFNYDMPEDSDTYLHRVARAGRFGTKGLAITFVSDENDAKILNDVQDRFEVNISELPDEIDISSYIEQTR

UUUUUUUUUUUUUUU (ssRNA) [biotinylated 15U RNA]
binding result: binds
